Patent US20260103529A1 (CONFO THERAPEUTICS N V, published 2026)

Assays:
Test in all cases: flow cytometry on HEK293T cells transiently expressing Flag-tagged receptor; receptor presence confirmed by anti-Flag detection
[1] = biological target: T1, human MC3R (melanocortin 3 receptor) (human, UniProt P41968 1-323)
T1 construct: whole, on cells; Flag-tagged in flow cytometry; transiently expressed in HEK293T/HEK293 cells

[2] = biological target: T2, human MC1R (melanocortin 1 receptor) (human, UniProt Q01726 1-317)
T2 construct: whole, on cells; Flag-tagged in flow cytometry; transiently expressed in HEK293T/HEK293 cells; also called hMC1R
T2 sequence (Q01726 whole entry): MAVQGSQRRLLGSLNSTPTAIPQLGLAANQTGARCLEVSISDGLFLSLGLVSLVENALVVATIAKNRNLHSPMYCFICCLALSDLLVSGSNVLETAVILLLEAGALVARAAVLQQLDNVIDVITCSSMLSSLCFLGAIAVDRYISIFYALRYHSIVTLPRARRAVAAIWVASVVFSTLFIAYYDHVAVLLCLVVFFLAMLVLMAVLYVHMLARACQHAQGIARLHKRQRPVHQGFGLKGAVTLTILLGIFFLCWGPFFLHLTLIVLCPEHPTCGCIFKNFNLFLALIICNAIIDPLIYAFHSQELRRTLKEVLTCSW

[3] = biological target: T3, human MC5R (melanocortin 5 receptor) (human, UniProt P33032 1-325)
T3 construct: whole, on cells; Flag-tagged in flow cytometry; transiently expressed in HEK293T/HEK293 cells
T3 sequence (P33032 whole entry): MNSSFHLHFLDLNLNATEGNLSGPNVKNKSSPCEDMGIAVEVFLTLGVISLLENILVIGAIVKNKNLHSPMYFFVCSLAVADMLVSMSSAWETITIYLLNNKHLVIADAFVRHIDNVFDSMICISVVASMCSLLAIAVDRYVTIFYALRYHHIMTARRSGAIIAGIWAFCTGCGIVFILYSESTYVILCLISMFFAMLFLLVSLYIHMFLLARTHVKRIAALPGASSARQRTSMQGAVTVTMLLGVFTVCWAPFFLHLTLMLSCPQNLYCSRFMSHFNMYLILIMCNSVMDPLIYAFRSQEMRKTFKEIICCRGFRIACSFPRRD

[4] = biological target: T4, human MC2R (melanocortin 2 receptor) (human, UniProt Q01718 1-297)
T4 construct: whole, on cells; Flag-tagged, transiently expressed in HEK293T cells
T4 sequence (Q01718 whole entry): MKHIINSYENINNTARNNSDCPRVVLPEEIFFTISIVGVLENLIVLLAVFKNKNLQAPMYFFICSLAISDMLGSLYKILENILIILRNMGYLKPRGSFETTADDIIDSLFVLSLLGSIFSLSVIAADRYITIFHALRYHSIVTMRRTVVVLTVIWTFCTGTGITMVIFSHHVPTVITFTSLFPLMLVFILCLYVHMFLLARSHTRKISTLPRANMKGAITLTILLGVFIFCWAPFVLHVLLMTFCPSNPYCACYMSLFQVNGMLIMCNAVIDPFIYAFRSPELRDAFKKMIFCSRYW

Measured: binding result

T1 sequence (P41968 whole entry): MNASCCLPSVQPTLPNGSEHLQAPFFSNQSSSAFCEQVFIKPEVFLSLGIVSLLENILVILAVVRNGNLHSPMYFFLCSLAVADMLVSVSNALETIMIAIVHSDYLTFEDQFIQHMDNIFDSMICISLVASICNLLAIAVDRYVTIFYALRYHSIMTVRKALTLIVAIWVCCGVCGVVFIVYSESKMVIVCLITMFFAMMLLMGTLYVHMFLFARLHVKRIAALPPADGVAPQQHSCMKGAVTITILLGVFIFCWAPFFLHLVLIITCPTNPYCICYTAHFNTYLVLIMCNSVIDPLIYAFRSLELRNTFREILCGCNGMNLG

B1: pN0162 (VHH)
VHH: QVQLVESGGGLVQPGGSLRLSCAASGSAFSLNVMGWYRQTPGNQRALVAEITKDGSTNYADSAKGRFTISRDNAKNTVHLQMDSLKPEDTAVYYCKARTGRIVRPLDYWGQGTQVTVSS
notes: Agonist nanobody from llama immunisation, purified from E. coli; also called pN162
no binding (tested: 1 µM): all assays above
